Laboratory results: article PMC11025565 (Journal of molecular biology, 2021)

T1: integrin β3(P685-F727) transmembrane peptide with C687S and I693A (human, UniProt P05106 711-753, C687S | I693A)
T1 chain (looked up): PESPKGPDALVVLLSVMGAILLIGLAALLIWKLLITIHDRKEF

T2: integrin β3(P685-F727) transmembrane peptide with C687S (human, UniProt P05106 711-753, C687S)
T2 chain (looked up): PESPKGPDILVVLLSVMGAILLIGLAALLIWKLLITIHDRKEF


Tests used:
[1] = target: T1, integrin β3(P685-F727) transmembrane …; assay: ITC
[2] = target: T2, integrin β3(P685-F727) transmembrane …; assay: ITC

Sequence of integrin αIIb(A958-P998) transmembrane peptide (P08514 989-1029): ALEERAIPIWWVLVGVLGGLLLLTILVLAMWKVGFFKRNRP

| Binder | KXY [1] | dH [1] | KXY [2] | dH [2] |
| --- | --- | --- | --- | --- |
| ALEERAIPIWVVLVGVLGGLLLLTILVLAMWKVGFFKRNRP (peptide, UniProt P08514 989-1029, looked up) [integrin αIIb(A958-P998) transmembrane peptide with W968V] | 18600 ± 800 | -16 ± 0.2 kcal/mol | 13200 ± 600 | -14.3 ± 0.2 kcal/mol |
| integrin αIIb(A958-P998) transmembrane peptide with G972A (peptide) not shown |  |  | 1080 ± 30 | -14.2 ± 0.2 kcal/mol |
| integrin αIIb(A958-P998) transmembrane peptide with G972S (peptide) not shown |  |  | 810 ± 20 | -14.8 ± 0.2 kcal/mol |
| ALEERAIAIWVVLVGVLGGLLLLTILVLAMWKVGFFKRNRP (peptide, UniProt P08514 989-1029, looked up) [integrin αIIb(A958-P998) transmembrane peptide with P965A/W968V] |  |  | 9700 ± 300 | -14.6 ± 0.1 kcal/mol |
| ALEERAIPIWAVLVGVLGGLLLLTILVLAMWKVGFFKRNRP (peptide, UniProt P08514 989-1029, looked up) [integrin αIIb(A958-P998) transmembrane peptide with W968A] |  |  | 14000 ± 1000 | -14.1 ± 0.3 kcal/mol |
| ALEERAIPIWVVLVAVLGGLLLLTILVLAMWKVGFFKRNRP (peptide, UniProt P08514 989-1029, looked up) [integrin αIIb(A958-P998) transmembrane peptide with W968V/G972A] |  |  | 1570 ± 50 | -14.4 ± 0.2 kcal/mol |
| ALEERAIPIWVVLVSVLGGLLLLTILVLAMWKVGFFKRNRP (peptide, UniProt P08514 989-1029, looked up) [integrin αIIb(A958-P998) transmembrane peptide with W968V/G972S] |  |  | 1300 ± 50 | -12.5 ± 0.3 kcal/mol |
| integrin αIIb(A958-P998) transmembrane peptide (peptide) not shown | 9500 ± 500 | -13.9 ± 0.3 kcal/mol |  |  |
